Dissociation half-life data for 1 molecule are collected here from paper PMC9007600.

For this experiment, the target named is tralokinumab half molecule (human).

B1: tralokinumab half molecule (antibody, V domains shown)
VH: QVQLVQSGAEVKKPGASVKVSCKASGYTFTNYGLSWVRQAPGQGLEWMGWISANNGDTNYGQEFQGRVTMTTDTSTSTAYMELRSLRSDDTAVYYCARDSSSSWARWFFDLWGRGTLVTVSS
VL: SYVLTQPPSVSVAPGKTARITCGGNIIGSKLVHWYQQKPGQAPVLVIYDDGDRPSGIPERFSGSNSGNTATLTISRVEAGDEADYYCQVWDTGSDPVVFGGGTKLTVL
Turning to B1, the dissociation half-life worked out at 0.7 days.
